Data taken from article PMC5581195, “The activation of OsEIL1 on YUC8 transcription and auxin biosynthesis is required for ethylene-inhibited root elongation in rice early seedling development”.

Target: T1, GST-EIL1-N (OsEIL1 N-terminal region) (Oryza sativa (rice), UniProt Q10M41 1-350)
T1 sequence: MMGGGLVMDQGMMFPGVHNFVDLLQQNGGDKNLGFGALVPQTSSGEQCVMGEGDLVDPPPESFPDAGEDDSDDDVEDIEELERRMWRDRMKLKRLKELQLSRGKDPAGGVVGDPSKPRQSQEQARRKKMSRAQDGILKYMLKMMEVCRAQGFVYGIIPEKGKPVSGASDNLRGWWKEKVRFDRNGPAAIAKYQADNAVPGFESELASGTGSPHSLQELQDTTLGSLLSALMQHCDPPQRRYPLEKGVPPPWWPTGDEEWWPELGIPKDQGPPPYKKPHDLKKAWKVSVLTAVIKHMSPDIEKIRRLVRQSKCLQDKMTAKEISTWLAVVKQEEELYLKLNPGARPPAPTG
Assay: EMSA; specificity shown by excess unlabeled probe competition; LightShift Chemiluminescent EMSA kit, manufacturer's protocol; 20 min at room temperature; 5% native polyacrylamide gel; buffer, salt and pH not stated
Details: protein: recombinant; tags: N-terminal GST (pGEX-6p-1); label: biotin 3' end; blunt

B1: YUC8/REIN7 promoter EBS probe (P1 fragment region) (dsDNA)
DNA 1: CCAAAATTTTTAATGTAAAATTTTAAGTACATTTTTTTCATGTACTAGCTACCTCC
DNA 2: GGAGGTAGCTAGTACATGAAAAAAATGTACTTAAAATTTTACATTAAAAATTTTGG
B1: binds.
